Three molecules from patent US20250197483A1 (US Dept. of Health and Human Services, published 2025) can be followed below.

First the molecules themselves.
B1: VRC07-523LS.v1 (antibody, human IgG1, kappa)
heavy: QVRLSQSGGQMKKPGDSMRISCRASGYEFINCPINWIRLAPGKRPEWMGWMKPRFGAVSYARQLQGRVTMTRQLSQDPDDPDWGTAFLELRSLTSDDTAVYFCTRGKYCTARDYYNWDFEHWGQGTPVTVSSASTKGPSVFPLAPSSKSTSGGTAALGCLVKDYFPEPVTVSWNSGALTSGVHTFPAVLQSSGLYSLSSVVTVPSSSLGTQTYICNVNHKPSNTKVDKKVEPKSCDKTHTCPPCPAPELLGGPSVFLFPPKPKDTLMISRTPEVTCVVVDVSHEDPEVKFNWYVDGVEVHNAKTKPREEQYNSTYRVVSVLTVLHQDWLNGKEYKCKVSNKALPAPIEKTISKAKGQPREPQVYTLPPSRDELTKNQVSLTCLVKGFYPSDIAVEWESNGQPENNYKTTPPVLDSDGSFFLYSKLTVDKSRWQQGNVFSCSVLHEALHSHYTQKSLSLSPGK
light: LTQSPGTLSLSPGETAIISCRTSQYGSLAWYQQRPGQAPRLVIYSGSTRAAGIPDRFSGSRWGPDYNLTISNLESGDFGVYYCQQYEFFGQGTKVQVDIKRTVAAPSVFIFPPSDEQLKSGTASVVCLLNNFYPREAKVQWKVDNALQSGNSQESVTEQDSKDSTYSLSSTLTLSKADYEKHKVYACEVTHQGLSSPVTKSFNRGEC
B2: VRC07-523LS.v34 (antibody, human IgG1, kappa)
heavy: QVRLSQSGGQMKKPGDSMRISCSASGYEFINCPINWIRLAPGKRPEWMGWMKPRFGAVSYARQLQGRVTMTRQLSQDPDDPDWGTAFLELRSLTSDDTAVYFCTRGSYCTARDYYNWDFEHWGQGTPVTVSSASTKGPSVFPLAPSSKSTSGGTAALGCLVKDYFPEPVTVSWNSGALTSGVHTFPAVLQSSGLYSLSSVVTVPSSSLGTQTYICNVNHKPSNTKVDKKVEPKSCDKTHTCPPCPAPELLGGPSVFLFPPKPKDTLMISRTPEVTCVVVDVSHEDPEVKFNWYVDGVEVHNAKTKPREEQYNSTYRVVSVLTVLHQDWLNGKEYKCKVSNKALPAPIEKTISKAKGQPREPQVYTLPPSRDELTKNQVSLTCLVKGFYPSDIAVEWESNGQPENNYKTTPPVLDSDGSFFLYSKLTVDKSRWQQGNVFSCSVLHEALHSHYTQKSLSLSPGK
light: LTQSPGTLSLSPGETAIISCETSQYGSLAWYQQRPGQAPRLVIYSGSTRAAGIPDRFSGSRWGPDYNLTISNLESGDFGVYYCQQYEFFGQGTKVQVDIKRTVAAPSVFIFPPSDEQLKSGTASVVCLLNNFYPREAKVQWKVDNALQSGNSQESVTEQDSKDSTYSLSSTLTLSKADYEKHKVYACEVTHQGLSSPVTKSFNRGEC
B3: VRC07-523LS.v11 (antibody, human IgG1, kappa)
heavy: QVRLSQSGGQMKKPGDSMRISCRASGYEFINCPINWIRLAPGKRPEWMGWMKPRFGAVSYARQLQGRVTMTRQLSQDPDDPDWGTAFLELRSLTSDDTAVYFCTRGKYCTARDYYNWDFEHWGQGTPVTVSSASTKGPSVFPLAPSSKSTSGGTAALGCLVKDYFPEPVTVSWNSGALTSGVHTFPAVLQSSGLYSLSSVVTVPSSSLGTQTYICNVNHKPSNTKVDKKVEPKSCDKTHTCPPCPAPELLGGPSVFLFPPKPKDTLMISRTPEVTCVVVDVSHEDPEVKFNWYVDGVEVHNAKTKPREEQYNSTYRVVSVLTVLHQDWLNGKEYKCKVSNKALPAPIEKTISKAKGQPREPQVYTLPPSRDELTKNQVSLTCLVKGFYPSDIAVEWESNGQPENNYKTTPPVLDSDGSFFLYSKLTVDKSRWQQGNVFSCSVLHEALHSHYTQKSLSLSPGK
light: LTQSPGTLSLSPGETAIISCDTSQYGSLAWYQQRPGQAPRLVIYSGSTRAAGIPDRFSGSRWGPDYNLTISNLESGDFGVYYCQQYEFFGQGTKVQVDIKRTVAAPSVFIFPPSDEQLKSGTASVVCLLNNFYPREAKVQWKVDNALQSGNSQESVTEQDSKDSTYSLSSTLTLSKADYEKHKVYACEVTHQGLSSPVTKSFNRGEC

T1 sequence (P55899 24-297 limits assumed, chain 1 of 2): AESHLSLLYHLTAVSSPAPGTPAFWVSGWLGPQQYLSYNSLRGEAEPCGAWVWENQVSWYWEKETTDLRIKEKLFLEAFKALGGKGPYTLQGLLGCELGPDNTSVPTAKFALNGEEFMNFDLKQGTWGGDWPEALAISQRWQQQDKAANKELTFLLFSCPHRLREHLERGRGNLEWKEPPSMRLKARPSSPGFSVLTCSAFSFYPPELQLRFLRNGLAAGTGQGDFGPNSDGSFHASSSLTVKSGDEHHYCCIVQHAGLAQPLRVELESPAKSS
T1 sequence (P61769 21-119 limits assumed, chain 2 of 2): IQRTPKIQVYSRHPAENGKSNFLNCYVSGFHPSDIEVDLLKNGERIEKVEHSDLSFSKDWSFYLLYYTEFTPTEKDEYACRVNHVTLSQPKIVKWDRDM

This experiment has as its target T1, FcRn/β2m heterodimer (UniProt P55899 24-297; P61769 21-119).
T1 construct: also called His-tagged FcRn/β2m; neonatal Fc receptor
The experiment is described as follows: BLI (Octet), pH 7.4: Ni-NTA biosensors coated with His-tagged FcRn/β2m dipped into wells with the antibody as analyte. Background: BLI is a label-free optical method that tracks binding on a fibre tip over time.
Excerpt: Fc-FcRn binding kinetics by bio-layer interferometry. We used Octet HTX system (ForteBio) to measure the Fc-FcRn binding kinetics with FcRn/2m as ligand. […] For reference, we repeated the entire steps mentioned above but with blank Ni-NTA biosensors. Binding kinetic sensograms were globally fitted with 1:1 model and double referencing to extract kinetic parameters.
Take B1: the Kd (in general, the concentration at which binding is half-saturated) stood at 0.93 µM.
The value for B2 was 6 µM.
The value for B3 was 3.96 µM.
